Laboratory results as given in patent US20050159352A1, “Use of monocarboxylate transporter protein for thyroid hormone transport” (priority 2002, published 2005).

Substrate: N[C@@H](Cc1ccc(Oc2cc(I)c(O)c(I)c2)c(I)c1)C(=O)O
Assay: cells, lysate or membranes
Conditions: other: net MCT8 transport, Michaelis-Menten analysis
Procedure: Apparent Km values were calculated by fitting the plot of uptake rate (v) versus ligand concentration (5) to the Michaelis Menten equation: v=Vmax/(1+Km/S), wherein Vmax is the maximum uptake rate, and Km the Michaelis constant. Calculations were performed using the Slide Write Plus program version 5.01 (Advanced Graphics Software).

B1: MCT8 (Rattus norvegicus; G227D/I169T/S199P/T171I) (protein)
chain: MALPSPASEEAEGPCQEANQEYQEPVCSPVPEPEPEPEPEPEPEPEPVPVPPPEPQPEPEPQPLPDPAPLPVLGFEAEPVQEPEPTPTVETRGTARGFQPPEGGFGWIVVFAATWCNGSIFGIHNSVGILYSMLLEEEKEKNRQVEFQAAWVGALAMGMIFFCSPIVSTFIDRLGCRITATTGAAVAFIGLHTSSFTSPLSLRYFTYGILFGCGCSFAFQPSLVILDHYFQRRLGLANGVVSAGSSIFSMSFPFLIKMLGDRIKLAQTFQVLSTFMFVLTLLSLTYRPLLPSSQDTPSKRGAHTLRQRFLVQFRKYFNMRVFRQRTYRIWAFGIAAAALGYFVPYVHLMKYVEDKFKEIKETWVLLVCIGATSGLGRLVSGHISDSIPGLKKIYLQVLSFLLLGLMSMMIPLCRDFGGLIVVCLFLGLCDGFFITIMAPIAFELVGPMQASQAIGYLLGMMALPMIAGPPIAGLLRNCFGNYHVAFYFAGVPPIIGAVILFFVPLMHQRMFKKEQRESSKDKMLSHDPDPNGELLPGSPTPEEPI
Km: 2.2 µM
